Data on one substance can be found in PMC7183766.

A word on the koff: it is the rate constant with which the complex falls apart.

The target in the assay is SpirNT(A*)-biotin (on streptavidin beads) (Drosophila melanogaster) (UniProt Q9U1K1). Kind of assay: TIRF microscopy of actin filaments on protein-coated beads.
Sequence of SpirNT(A*)-biotin (on streptavidin beads) (Drosophila melanogaster) (Q9U1K1 1-490): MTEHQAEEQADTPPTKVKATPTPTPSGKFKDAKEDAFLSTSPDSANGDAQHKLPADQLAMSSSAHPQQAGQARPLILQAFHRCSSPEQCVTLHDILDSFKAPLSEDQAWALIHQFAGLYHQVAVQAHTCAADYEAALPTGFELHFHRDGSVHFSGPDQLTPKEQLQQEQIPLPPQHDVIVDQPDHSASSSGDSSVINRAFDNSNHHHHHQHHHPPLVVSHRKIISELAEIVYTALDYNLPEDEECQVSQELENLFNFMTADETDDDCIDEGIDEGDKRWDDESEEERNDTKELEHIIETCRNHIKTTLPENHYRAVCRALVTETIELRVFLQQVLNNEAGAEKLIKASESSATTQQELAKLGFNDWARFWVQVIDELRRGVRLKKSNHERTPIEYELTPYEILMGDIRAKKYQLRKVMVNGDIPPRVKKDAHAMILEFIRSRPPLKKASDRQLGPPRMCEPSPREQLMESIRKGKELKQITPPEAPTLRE

Regarding “actin filaments (Acanthamoeba castellani actin) (natural protein)”, the koff was 0.011 s⁻¹.
